Assay results as given in patent US9605283B2, “Microorganism modified for the production of 1,3-propanediol” (INSTITUT NATIONAL DES SCIENCES APPLIQUÉES, priority 2012, dated 2017).
Residue numbers refer to the chain shown, from its start. In names and notes the source's numbering stands.

B1: Bs-MdhR87C: B. subtilis malate dehydrogenase mutant R87C, SEQ ID No. 154 (protein, listed as Bacillus subtilis)
chain: MGNTRKKVSVIGAGFTGATTAFLIAQKELADVVLVDIPQLENPTKGKALDMLEASPVQGFDAKITGTSNYEDTAGSDIVVITAGIACKPGMSRDDLVSTNEKIMRSVTQEIVKYSPDSIIVVLTNPVDAMTYAVYKESGFPKERVIGQSGVLDTARFRTFVAEELNLSVKDVTGFVLGGHGDDMVPLVRYSYAGGIPLETLIPKERIDAIVERTRKGGGEIVNLLGNGSAYYAPAASLTEMVEAILKDQRRVLPTIAYLEGEYGYEGIYLGVPTIVGGNGLEQIIELELTDYERAQLNKSVESVKNVMKVLS
B2: Zm-Pdc: pyruvate decarboxylase of Zymomonas mobilis, SEQ ID No. 128 (protein, listed as Zymomonas mobilis)
chain: MSYTVGTYLAERLVQIGLKHHFAVAGDYNLVLLDNLLLNKNMEQVYCCNELNCGFSAEGYARAKGAAAAVVTYSVGALSAFDAIGGAYAENLPVILISGAPNNNDHAAGHVLHHALGKTDYHYQLEMAKNITAAAEAIYTPEEAPAKIDHVIKTALREKKPVYLEIACNIASMPCAAPGPASALFNDEASDEASLNAAVEETLKFIANRDKVAVLVGSKLRAAGAEEAAVKFADALGGAVATMAAAKSFFPEENPHYIGTSWGEVSYPGVEKTMKEADAVIALAPVFNDYSTTGWTDIPDPKKLVLAEPRSVVVNGIRFPSVHLKDYLTRLAQKVSKKTGALDFFKSLNAGELKKAAPADPSAPLVNAEIARQVEALLTPNTTVIAETGDSWFNAQRMKLPNGARVEYEMQWGHIGWSVPAAFGYAVGAPERRNILMVGDGSFQLTAQEVAQMVRLKLPVIIFLINNYGYTIEVMIHDGPYNNIKNWDYAGLMEVFNGNGGYDSGAGKGLKAKTGGELAEAIKVALANTDGPTLIECFIGREDCTEELVKWGKRVAAANSRKPVNKLL
B3: Zm-Pdc W392L: Z. mobilis pyruvate decarboxylase mutant W392L, SEQ ID No. 192 (protein, listed as Zymomonas mobilis)
chain: B2 chain with W392L
B4: Zm-Pdc W392Q: Z. mobilis pyruvate decarboxylase mutant W392Q, SEQ ID No. 190 (protein, listed as Zymomonas mobilis)
chain: B2 chain with W392Q
B5: Sc-Pdc1: pyruvate decarboxylase of Saccharomyces cerevisiae, SEQ ID No. 208 (protein, listed as Saccharomyces cerevisiae)
chain: MSEITLGKYLFERLKQVNVNTVFGLPGDFNLSLLDKIYEVEGMRWAGNANELNAAYAADGYARIKGMSCIITTFGVGELSALNGIAGSYAEHVGVLHVVGVPSISAQAKQLLLHHTLGNGDFTVFHRMSANISETTAMITDIATAPAEIDRCIRTTYVTQRPVYLGLPANLVDLNVPAKLLQTPIDMSLKPNDAESEKEVIDTILALVKDAKNPVILADACCSRHDVKAETKKLIDLTQFPAFVTPMGKGSIDEQHPRYGGVYVGTLSKPEVKEAVESADLILSVGALLSDFNTGSFSYSYKTKNIVEFHSDHMKIRNATFPGVQMKFVLQKLLTTIADAAKGYKPVAVPARTPANAAVPASTPLKQEWMWNQLGNFLQEGDVVIAETGTSAFGINQTTFPNNTYGISQVLWGSIGFTTGATLGAAFAAEEIDPKKRVILFIGDGSLQLTVQEISTMIRWGLKPYLFVLNNDGYTIEKLIHGPKAQYNEIQGWDHLSLLPTFGAKDYETHRVATTGEWDKLTQDKSFNDNSKIRMIEIMLPVFDAPQNLVEQAKLTAATNAKQ
B6: Ec-Mdh: (L)-malate dehydrogenase of Escherichia coli, wild-type, SEQ ID No. 124 (protein, listed as Escherichia coli)
chain: MKVAVLGAAGGIGQALALLLKTQLPSGSELSLYDIAPVTPGVAVDLSHIPTAVKIKGFSGEDATPALEGADVVLISAGVARKPGMDRSDLFNVNAGIVKNLVQQVAKTCPKACIGIITNPVNTTVAIAAEVLKKAGVYDKNKLFGVTTLDIIRSNTFVAELKGKQPGEVEVPVIGGHSGVTILPLLSQVPGVSFTEQEVADLTKRIQNAGTEVVEAKAGGGSATLSMGQAAARFGLSLVRALQGEQGVVECAYVEGDGQYARFFSQPLLLGKNGVEERKSIGTLSAFEQNALEGMLDTLKKDIALGEEFVNK
B7: Ec-MdhR81A D865 G179D: E. coli malate dehydrogenase mutant R81A D86S G179D (printed D865), SEQ ID No 172 (protein, listed as Escherichia coli)
chain: B6 chain with R81A, D86S, G179D
B8: Ec-MdhR81A M85Q I12V: E. coli malate dehydrogenase mutant R81A M85Q I12V, SEQ ID No. 164 (protein, listed as Escherichia coli)
chain: B6 chain with I12V, R81A, M85Q
B9: Ec-MdhR81A I12V: E. coli malate dehydrogenase mutant R81A I12V, SEQ ID No. 162 (protein, listed as Escherichia coli)
chain: B6 chain with I12V, R81A
B10: Ec-MdhR81A G179D: E. coli malate dehydrogenase mutant R81A G179D, SEQ ID No. 168 (protein, listed as Escherichia coli)
chain: B6 chain with R81A, G179D
B11: Ec-MdhR81A M85E: E. coli malate dehydrogenase mutant R81A M85E, SEQ ID No 160 (protein, listed as Escherichia coli)
chain: B6 chain with R81A, M85E
B12: Ec-MdhR81A M85Q: E. coli malate dehydrogenase mutant R81A M85Q, SEQ ID No. 158 (protein, listed as Escherichia coli)
chain: B6 chain with R81A, M85Q
B13: Ec-MdhR81A M85E I12V: E. coli malate dehydrogenase mutant R81A M85E I12V, SEQ ID No. 166 (protein, listed as Escherichia coli)
chain: B6 chain with I12V, R81A, M85E
B14: Ec-MdhR81A D86S: E. coli malate dehydrogenase mutant R81A D86S, SEQ ID No. 170 (protein, listed as Escherichia coli)
chain: B6 chain with R81A, D86S
B15: Ec-MdhR81A: E. coli malate dehydrogenase mutant R81A, SEQ ID No. 156 (protein, listed as Escherichia coli)
chain: B6 chain with R81A

Key:
Type in all cases: biochemical
[1] = DHB dehydrogenase activity of cytosolic enzymes (DHB-dependent reduction of NAD+)
Description: Activity of the cytosolic DHB dehydrogenases (Ec-Mdh, Bs-Mdh, Ll-LdhA) was assayed by following the DHB-dependent reduction of NAD^+.
The reaction mixture contained 60 mM Hepes (pH 8), 50 mM potassium chloride, 5 mM MgCl2, 10 mM NAD, (optionally, 5 mM fructose-1,6-bisphosphate (F16bP)) (all products from Sigma), and appropriate amounts of purified enzyme or cell extract. Reactions were started by adding 50 mM (L)-2,4-dihydroxybutyrate (Rhodia).
All enzymatic assays were carried out at 37° C. in 96-well flat bottomed microtiter plates in a final volume of 250 μL. The reactions were followed by the characteristic absorption of NADH at 340 nm (εNADH=6.22 mM^−1 cm^−1) or the absorbtion of DCIP at 655 nm (εDCIP=5.9 mM^−1 cm^−1) in a microplate reader (BioRad 680XR).

[2] = Malate dehydrogenase activity (natural substrate); details: for Max. specific activity, malate: activity measured at 50 mM malate
[3] = OHB decarboxylase activity (coupled to YqhD, NADPH); details: for OHB decarboxylase activity (in words): wild-type enzymes; for Effect of mutation on activity and/or specificity for OHB (in words): versus wild-type enzyme
Description: OHB decarboxylase activity was assayed by coupling the decarboxylase activity to the NADPH-dependent reduction of the released 3-hydroxypropanal by purified aldehyde reductase, YqhD, from E. coli. The decarboxylation of pyruvate was coupled to the NADH-dependent reduction of acetaldehyde catalysed by yeast alcohol dehydrogenase. Branched-chain alpha-ketoacid decarboxylase activity was measured on 4-methyl-2-oxovaleric acid by coupling to the NADH-dependent reduction of 3-methylbutanal catalysed by horse liver alcohol dehydrogenase. […] Reactions were started by adding 20 mM 2-oxo-4-hydroxybutyrate (OHB), 10 mM 4-methyl-2-oxovaleric acid (MOV), or 5 mM pyruvate.

[4] = Pyruvate decarboxylase activity (coupled to yeast alcohol dehydrogenase)
Description: OHB decarboxylase activity was assayed by coupling the decarboxylase activity to the NADPH-dependent reduction of the released 3-hydroxypropanal by purified aldehyde reductase, YqhD, from E. coli. The decarboxylation of pyruvate was coupled to the NADH-dependent reduction of acetaldehyde catalysed by yeast alcohol dehydrogenase. Branched-chain alpha-ketoacid decarboxylase activity was measured on 4-methyl-2-oxovaleric acid by coupling to the NADH-dependent reduction of 3-methylbutanal catalysed by horse liver alcohol dehydrogenase. […]

[5] = activity measured at 50 mM DHB, Table 4
[6] = when not saturated, activity estimated at 20 mM substrate, Table 8
[7] = natural substrate pyruvate, Table 8
[8] = activity measured at 20 mM OHB, Table 10
[9] = activity measured at 50 mM pyruvate (Pdc mutants), Table 10

| Molecule | Max. specific activity, DHB [1, 5] [µmol/mg/min] | Max. specific activity, malate ([2]; Table 4) [µmol/mg/min] | further results |
| --- | --- | --- | --- |
| B1 | 0.06 | 0.13 | maximum activity on DHB ([1]; text of Example 2): 0.06 µmol/mg/min; activity on malate ([2]; text of Example 2): 0.13 µmol/mg/min |
| B2 | – | – | Max. specific activity, OHB [3, 6]: 0.052 µmol/mg/min; OHB decarboxylase activity (in words) [3]: significant OHB decarboxylase activity; Max. specific activity, Natural substrate [4, 7]: 65 µmol/mg/min |
| B3 | – | – | Max. specific activity, OHB [3, 8]: 0.04 µmol/mg/min; Effect of mutation on activity and/or specificity for OHB (in words) [3]: increased activity and/or specificity for OHB; Max. specific activity, Natural substrate [4, 9]: 0.09 µmol/mg/min |
| B4 | – | – | Max. specific activity, OHB [3, 8]: 0.19 µmol/mg/min; Effect of mutation on activity and/or specificity for OHB (in words) [3]: increased activity and/or specificity for OHB; Max. specific activity, Natural substrate [4, 9]: 1.39 µmol/mg/min |
| B5 | – | – | Max. specific activity, OHB [3, 6]: 0.055 µmol/mg/min; OHB decarboxylase activity (in words) [3]: significant OHB decarboxylase activity; Max. specific activity, Natural substrate [4, 7]: 1.3 µmol/mg/min |
| B6 | – | – | DHB dehydrogenase activity (in words) ([1]; cytosolic wild-type enzymes): no measurable DHB dehydrogenase activity; Max. specific activity, DHB ([1]; when not saturated, activity estimated at 50 mM substrate, Table 2): 0 µmol/mg/min; Max. specific activity, Natural substrate ([2]; natural substrate (L)-malate, Table 2): 52.5 µmol/mg/min |
| B7 | 2.51 | 0.64 | Km ([1]; ns = not saturated at concentrations of up to 100 mM, Table 4): 25 mM; Km ([2]; read-out: Km, malate, Table 4): 4 mM |
| B8 | 7.1 | 0.98 | – |
| B9 | 2.5 | 0.66 | – |
| B10 | 2.1 | 0.52 | – |
| B11 | 2.38 | 0.65 | – |
| B12 | 2.98 | 0.57 | – |
| B13 | 10.3 | 0.91 | – |
| B14 | 0.79 | 0.42 | – |
| B15 | 0.3 | 0.12 | – |
